Patent US20260234232A1 (QUAERITE BIOPHARM RESEARCH BEIJING, published 2026)
Read-outs that look alike come from different tables or passages of the source.

Columns and labels:
[1] = biological target: T1, human VEGFA165 (human, UniProt P15692-4 27-191); assay: ELISA, coated human VEGFA165, anti-His detection
T1 construct: Bought protein from two suppliers, treated as one molecule; the supplier is named under assay; also called antigen VEGFA
Experimental: (§1) Antigen human VEGFA165 (label-free, purchased from Sino Biological, Cat. No.: HPLC-10008-HNAH, hereinafter referred to as VEGFA) was diluted with ELISA coating buffer to a final concentration of 0.3 μg/mL and added to a microplate at 100 μL/well for coating at 4° C. overnight. […] The solution used for antibody dilution was PBS containing 0.1% Tween-20 (pH 7.4), i.e., PBST. After being incubated at 37° C. for 1 h, the microplate was washed 3 times with PBST, and a dilution of His-Tag murine monoclonal antibody (purchased from Proteintech, Cat. No.: 66005-1-Ig) was added. The plate was further incubated at 37° C. for 1 h and washed again. Subsequently, a dilution of HRP-labeled goat anti-mouse IgG antibody (HRP-conjugated Affinipure Goat Anti-Mouse IgG (H+L), purchased from Proteintech, Cat. No.: SA00001-1) was added, and the plate was incubated at room temperature for 45 min. After the plate was washed, 100 μL of TMB (purchased from Tiangen Biotech, Cat. No.: PA107-01) was added to each well for color development at 37° C. for 15 min, followed by the addition of 50 μL of stopping solution. The absorbance at 450 nm (OD450) was measured using a microplate reader.

[2] = biological target: T1, human VEGFA165; assay: ELISA, coated human VEGFA165, anti-His detection; remark: listed apart in the source
Experimental: as §1
The purified bivalent humanized nanobodies were evaluated for their VEGFA binding activity, and the experimental procedure was the same as that described in “2.

[3] = biological target: T1, human VEGFA165; assay: competitive ELISA, coated VEGFA, competitor VEGFR2-ECD-Fc 1 nM
[4] = biological target: T1, human VEGFA165; assay: SPR Biacore 8K, VEGFA165 on CM5, nanobody analyte, 1:1 fit
Experimental: Using the Biacore 8K instrument (Cytiva), the antigen VEGFA165 (label-free, purchased from Sino Biological, Cat. No.: HPLC-10008-HNAH) as the ligand was coupled onto a CM5 chip through amino-coupling reagents (EDC and NHS), with the coupling level being about 400 RU. The mobile phase buffer was HBS-EP (0.01 M HEPES pH 7.4, 0.15 M NaCl, 3 mM EDTA, 0.005% v/v Tween 20) during the experiment. […] In the kinetic analysis, the binding time between the antigen and the antibody was 240 s, the dissociation time was 1500 s, and the flow rate was 30 μL/min. In a multi-cycle mode, the chip was regenerated with 100 mM hydrochloric acid.

T1 sequence (P15692 other isoform, or with tags, fused parts or gaps limits assumed): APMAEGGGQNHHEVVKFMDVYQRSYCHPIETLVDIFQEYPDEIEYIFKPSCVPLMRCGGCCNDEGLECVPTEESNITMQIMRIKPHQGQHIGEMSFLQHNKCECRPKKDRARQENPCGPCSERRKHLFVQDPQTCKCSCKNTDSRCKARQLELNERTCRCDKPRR

B1: 2V1-NL (VHH)
chain: QLQLVESGGGSVQPGGSLRLSCEVSGRTFSSYTMGWFRQAPGKEREFVVAISKGGYKYDSVSLEARFTISKDNTKNTVYLQMNSLKPEDTAVYYCAATRAYGSSRLRLADTYEYWGQGTQVTVSSQLQLVESGGGSVQPGGSLRLSCEVSGRTFSSYTMGWFRQAPGKEREFVVAISKGGYKYDSVSLEARFTISKDNTKNTVYLQMNSLKPEDTAVYYCAATRAYGSSRLRLADTYEYWGQGTQVTVSS
notes: Tandem bivalent nanobody; also called bivalent V1 without a linker
- EC50 [1]: 290 pM

B2: 2V30-2H-2m-NL (VHH)
chain: EVQLVESGGGLVQPGGSLRLSCAASGRTFSSYTMGWFRQAPGKEREFVVAISKGGYKYDAVSLEARFTISRDNSKNTVYLQMNSLRPEDTAVYYCAATRAYGSSRLRLAKTYEYWGQGTLVTVSSEVQLVESGGGLVQPGGSLRLSCAASGRTFSSYTMGWFRQAPGKEREFVVAISKGGYKYDAVSLEARFTISRDNSKNTVYLQMNSLRPEDTAVYYCAATRAYGSSRLRLAKTYEYWGQGTLVTVSS
notes: Tandem bivalent humanized nanobody
- EC50 [2]: 810 pM

B3: 2V1-DP-NL (VHH)
chain: EVQLVESGGGLVQPGGSLRLSCAVSGRTFSSYTMGWFRQAPGKEREFVVAISKGGYKYDSVSLEARFTISRDNSKNTVYLQMNSLRPEDTAVYYCAATRAYGSSRLRLADTYEYWGQGTLVTVSSEVQLVESGGGLVQPGGSLRLSCAVSGRTFSSYTMGWFRQAPGKEREFVVAISKGGYKYDSVSLEARFTISRDNSKNTVYLQMNSLRPEDTAVYYCAATRAYGSSRLRLADTYEYWGQGTLVTVSS
notes: as for B2
- EC50 [2]: 200 pM

B4: 2V15-30GS (VHH)
chain: QLQLVESGGGSVQPGGSLRLSCEVSGRTFASYTMGWFRQAPGKEREFVVAISKGGYKYDSVSLEARFTISKDNTKNTVYLQMNSLKPEDTAVYYCAGTRAYGSSRLRLAETYEYWGQGTQVTVSSGGGGSGGGSGGGGSGGGSGGGSGGGSGGGSQLQLVESGGGSVQPGGSLRLSCEVSGRTFASYTMGWFRQAPGKEREFVVAISKGGYKYDSVSLEARFTISKDNTKNTVYLQMNSLKPEDTAVYYCAGTRAYGSSRLRLAETYEYWGQGTQVTVSS
notes: Tandem bivalent nanobody
- IC50 [3]: 1600 pM
- Maximum inhibition rate (%) [3]: 94.1%
- EC50 [1]: 270 pM

B5: 2V1-6A (VHH)
chain: QLQLVESGGGSVQPGGSLRLSCEVSGRTFSSYTMGWFRQAPGKEREFVVAISKGGYKYDSVSLEARFTISKDNTKNTVYLQMNSLKPEDTAVYYCAATRAYGSSRLRLADTYEYWGQGTQVTVSSAAAAAAQLQLVESGGGSVQPGGSLRLSCEVSGRTFSSYTMGWFRQAPGKEREFVVAISKGGYKYDSVSLEARFTISKDNTKNTVYLQMNSLKPEDTAVYYCAATRAYGSSRLRLADTYEYWGQGTQVTVSS
notes: Tandem bivalent nanobody
- EC50 [1]: 330 pM

B6: 2V15-20S (VHH)
chain: QLQLVESGGGSVQPGGSLRLSCEVSGRTFASYTMGWFRQAPGKEREFVVAISKGGYKYDSVSLEARFTISKDNTKNTVYLQMNSLKPEDTAVYYCAGTRAYGSSRLRLAETYEYWGQGTQVTVSSSSSSSSSSSSSSSSSSSSSSQLQLVESGGGSVQPGGSLRLSCEVSGRTFASYTMGWFRQAPGKEREFVVAISKGGYKYDSVSLEARFTISKDNTKNTVYLQMNSLKPEDTAVYYCAGTRAYGSSRLRLAETYEYWGQGTQVTVSS
notes: Tandem bivalent nanobody
- IC50 [3]: 4380 pM
- Maximum inhibition rate (%) [3]: 89.8%
- EC50 [1]: 430 pM

B7: V29 (VHH)
VHH: QLQLVESGGGSVQPGGSLRLSCEVSGRTFSSYTMGWFRQAPGKEREFVVAISKGGYKYDSVSLEARFTISKDNTKNTVYLQMNSLKPEDTAVYYCAGTRAYGSSRLRLANTYEYWGQGTQVTVSS
notes: Monovalent nanobody; tag not described here
- Kd [4]: 653 pM
- koff [4]: 0.000154 s⁻¹
- kon [4]: 236000 M⁻¹ s⁻¹

B8: V33 (VHH)
VHH: QLQLVESGGGSVQPGGSLRLSCEVSGRTFSSYTMGWFRQAPGKEREFVVAISKGGYKYDSVSLEARFTISKDNTKNTVYLQMNSLKPEDTAVYYCAATRAYGSSRLRLAKTYEYWGQGTQVTVSS
notes: as for B7
- Kd [4]: 719 pM
- koff [4]: 0.000233 s⁻¹
- kon [4]: 324000 M⁻¹ s⁻¹

B9: 2V15-9S (VHH)
chain: QLQLVESGGGSVQPGGSLRLSCEVSGRTFASYTMGWFRQAPGKEREFVVAISKGGYKYDSVSLEARFTISKDNTKNTVYLQMNSLKPEDTAVYYCAGTRAYGSSRLRLAETYEYWGQGTQVTVSSSSSSSSSSSQLQLVESGGGSVQPGGSLRLSCEVSGRTFASYTMGWFRQAPGKEREFVVAISKGGYKYDSVSLEARFTISKDNTKNTVYLQMNSLKPEDTAVYYCAGTRAYGSSRLRLAETYEYWGQGTQVTVSS
notes: Tandem bivalent nanobody
- IC50 [3]: 3530 pM
- Maximum inhibition rate (%) [3]: 88.8%
- EC50 [1]: 210 pM

B10: 2V15-25GS (VHH)
chain: QLQLVESGGGSVQPGGSLRLSCEVSGRTFASYTMGWFRQAPGKEREFVVAISKGGYKYDSVSLEARFTISKDNTKNTVYLQMNSLKPEDTAVYYCAGTRAYGSSRLRLAETYEYWGQGTQVTVSSGGGGSGGGSGGGSGGGSGGGSGGGSQLQLVESGGGSVQPGGSLRLSCEVSGRTFASYTMGWFRQAPGKEREFVVAISKGGYKYDSVSLEARFTISKDNTKNTVYLQMNSLKPEDTAVYYCAGTRAYGSSRLRLAETYEYWGQGTQVTVSS
notes: Tandem bivalent nanobody
- IC50 [3]: 1660 pM
- Maximum inhibition rate (%) [3]: 94.5%
- EC50 [1]: 240 pM

B11: 2V1-EAAAK-Turn (VHH)
chain: QLQLVESGGGSVQPGGSLRLSCEVSGRTFSSYTMGWFRQAPGKEREFVVAISKGGYKYDSVSLEARFTISKDNTKNTVYLQMNSLKPEDTAVYYCAATRAYGSSRLRLADTYEYWGQGTQVTVSSPDSEAAAKEAAAKEAAAKEAAAKEAAAKPDGSSQLQLVESGGGSVQPGGSLRLSCEVSGRTFSSYTMGWFRQAPGKEREFVVAISKGGYKYDSVSLEARFTISKDNTKNTVYLQMNSLKPEDTAVYYCAATRAYGSSRLRLADTYEYWGQGTQVTVSS
notes: Tandem bivalent nanobody
- IC50 [3]: 1560 pM
- Maximum inhibition rate (%) [3]: 96.8%
- EC50 [1]: 310 pM

B12: 2V15-EAAAK-Turn (VHH)
chain: QLQLVESGGGSVQPGGSLRLSCEVSGRTFASYTMGWFRQAPGKEREFVVAISKGGYKYDSVSLEARFTISKDNTKNTVYLQMNSLKPEDTAVYYCAGTRAYGSSRLRLAETYEYWGQGTQVTVSSPDSEAAAKEAAAKEAAAKEAAAKEAAAKPDGSSQLQLVESGGGSVQPGGSLRLSCEVSGRTFASYTMGWFRQAPGKEREFVVAISKGGYKYDSVSLEARFTISKDNTKNTVYLQMNSLKPEDTAVYYCAGTRAYGSSRLRLAETYEYWGQGTQVTVSS
notes: Tandem bivalent nanobody
- IC50 [3]: 1760 pM
- Maximum inhibition rate (%) [3]: 96.7%
- EC50 [1]: 330 pM

B13: 2V15-20GS (VHH)
chain: QLQLVESGGGSVQPGGSLRLSCEVSGRTFASYTMGWFRQAPGKEREFVVAISKGGYKYDSVSLEARFTISKDNTKNTVYLQMNSLKPEDTAVYYCAGTRAYGSSRLRLAETYEYWGQGTQVTVSSGGGGSGGGSGGGSGGGSGGSQLQLVESGGGSVQPGGSLRLSCEVSGRTFASYTMGWFRQAPGKEREFVVAISKGGYKYDSVSLEARFTISKDNTKNTVYLQMNSLKPEDTAVYYCAGTRAYGSSRLRLAETYEYWGQGTQVTVSS
notes: Tandem bivalent nanobody
- IC50 [3]: 2030 pM
- Maximum inhibition rate (%) [3]: 94.2%
- EC50 [1]: 280 pM

B14: 2V15-39GS (VHH)
chain: QLQLVESGGGSVQPGGSLRLSCEVSGRTFASYTMGWFRQAPGKEREFVVAISKGGYKYDSVSLEARFTISKDNTKNTVYLQMNSLKPEDTAVYYCAGTRAYGSSRLRLAETYEYWGQGTQVTVSSGGGGSGGGSGGGGSGGGGSGGGGSGGGGSGGGGSGGGGSQLQLVESGGGSVQPGGSLRLSCEVSGRTFASYTMGWFRQAPGKEREFVVAISKGGYKYDSVSLEARFTISKDNTKNTVYLQMNSLKPEDTAVYYCAGTRAYGSSRLRLAETYEYWGQGTQVTVSS
notes: Tandem bivalent nanobody
- IC50 [3]: 1740 pM
- Maximum inhibition rate (%) [3]: 94.5%
- EC50 [1]: 380 pM
